Kd data for 26 sequences are collected here from the Immune Epitope Database (IEDB).

Assay [1] addresses HLA-B*18:01. The experiment in a line: IEDB peptide-MHC binding, purified MHC/competitive/radioactivity; filed as Kd, often an IC50 or EC50 that approximates it; ≥ and ≤ were set here for values at or beyond the usual limits of such assays.
The target in assay [2] is HLA-B*40:01. The description is as above.
The target in assay [3] is HLA-B*40:02. Described as above.
The target of assay [4] is HLA-B*44:02. Described as above.
In assay [5] the target is HLA-B*44:03. Described as above.
The target of assay [6] is HLA-B*45:01. The assay is described as above.
The target of assay [7] is HLA-A*02:01. Kind of assay: IEDB peptide-MHC binding, purified MHC/direct/fluorescence; filed as Kd, often an IC50 or EC50 that approximates it; ≥ and ≤ were set here for values at or beyond the usual limits of such assays.
Assay [8] addresses HLA-A*03:01. Described as above. To be noted: source organism: Araucaria virus.
Assay [9] deals with HLA-A*26:01. The experiment in a line: IEDB peptide-MHC binding, purified MHC/competitive/fluorescence; filed as Kd, often an IC50 or EC50 that approximates it; ≥ and ≤ were set here for values at or beyond the usual limits of such assays.
Assay [10] concerns the target HLA-B*15:17. The description is as above.
Assay [11] concerns the target HLA-B*18:01. The description is as above.
Assay [12] has as its target HLA-B*27:03. The assay is described as above.
Assay [13] deals with HLA-B*46:01. The description is as above.
The target in assay [14] is HLA-B*51:01. The assay is described as above.
For assay [15], the target named is HLA-B*57:01. Described as above.
In assay [16] the target is HLA-B*35:01. The experiment in a line: IEDB peptide-MHC binding, purified MHC/competitive/radioactivity; filed as Kd, often an IC50 or EC50 that approximates it; ≥ and ≤ were set here for values at or beyond the usual limits of such assays. The following applies: source organism: Dengue virus 3 Martinique/1243/1999.
In assay [17] the target is HLA-B*51:01. Described as above.
Assay [18] has as its target HLA-B*53:01. Described as above. The following applies: source organism: Dengue virus 3 Martinique/1243/1999.
The target in assay [19] is HLA-A*01:01. The description is as above. To be noted: source organism: Dengue virus 1 Brazil/97-11/1997.
Assay [20] deals with HLA-A*69:01. Kind of assay: IEDB peptide-MHC binding, purified MHC/competitive/fluorescence; filed as Kd, often an IC50 or EC50 that approximates it; ≥ and ≤ were set here for values at or beyond the usual limits of such assays.
Assay [21] concerns the target HLA-A*02:06. The experiment in a line: IEDB peptide-MHC binding, purified MHC/competitive/radioactivity; filed as Kd, often an IC50 or EC50 that approximates it; ≥ and ≤ were set here for values at or beyond the usual limits of such assays. The following applies: source organism: Dengue virus 2 Jamaica/1409/1983.
The target of assay [22] is HLA-A*24:03. The experiment in a line: IEDB peptide-MHC binding, purified MHC/direct/fluorescence; filed as Kd, often an IC50 or EC50 that approximates it; ≥ and ≤ were set here for values at or beyond the usual limits of such assays.
Assay [23] concerns the target HLA-B*39:01. Kind of assay: IEDB peptide-MHC binding, purified MHC/competitive/fluorescence; filed as Kd, often an IC50 or EC50 that approximates it; ≥ and ≤ were set here for values at or beyond the usual limits of such assays. The following applies: source organism: Homo sapiens.
Assay [24] concerns the target HLA-B*08:01. The experiment in a line: IEDB peptide-MHC binding, purified MHC/competitive/radioactivity; filed as Kd, often an IC50 or EC50 that approximates it; ≥ and ≤ were set here for values at or beyond the usual limits of such assays. To be noted: source organism: Dengue virus 4 Philippines/H241/1956.
Where [25] appears, read: source organism: SARS coronavirus Tor2.
Where [26] appears, read: source organism: Lymphocytic choriomeningitis virus (strain Traub).
[27] abbreviates: source organism: Mammarenavirus lassaense.
Where [28] appears, read: source organism: Araucaria virus.
[29] abbreviates: source organism: Dengue virus 3 Martinique/1243/1999.
[30] abbreviates: source organism: Mammarenavirus brazilense.
The mark [31] stands for this setting: source organism: Mammarenavirus guanaritoense.
Setting [32] is: source organism: Lymphocytic choriomeningitis virus (strain Armstrong).

What is called Kd is a measure of binding affinity in units of concentration.

Consider DESASKSASV, for which the equilibrium dissociation constant (Kd) in [1] (setting [25]) is 3780 nM; in assay [2] (setting [25]) it was 10200 nM; in assay [3] (setting [25]), 1210 nM; in assay [4] (setting [25]) it was 1970 nM; in [5] (setting [25]) it was 887 nM; in assay [6] (setting [25]), 2780 nM.

For the sequence EEKGISGTS, the Kd is no less than 77500 nM in [1] (setting [26]); no less than 53800 nM in assay [2] (setting [26]); no less than 45400 nM in [3] (setting [26]); no less than 34100 nM in assay [4] (setting [26]); no less than 78100 nM in [5] (setting [26]); 2220 nM in [6] (setting [26]).

FDAWFSQRGG: the Kd in [1] (setting [25]) is no less than 70500 nM; in [2] (setting [25]), no less than 69600 nM; in assay [3] (setting [25]), no less than 70800 nM; in [4] (setting [25]), 9750 nM; in [5] (setting [25]), no less than 32000 nM; in [6] (setting [25]), 360 nM.

As to FEKHILPFMS, the equilibrium dissociation constant (Kd) is no less than 22900 nM in [1] (setting [27]); no less than 33500 nM in assay [2] (setting [27]); 672 nM in assay [3] (setting [27]); no less than 70200 nM in assay [4] (setting [27]); no less than 70100 nM in assay [5] (setting [27]); no less than 22300 nM in assay [6] (setting [27]).

Regarding FELLNAPAT, the Kd in assay [1] (setting [25]) stood at 303 nM; in [2] (setting [25]) it was 1170 nM; in [3] (setting [25]) it was 11.1 nM; in [4] (setting [25]), 5790 nM; in [5] (setting [25]), 6130 nM; in assay [6] (setting [25]), 392 nM.

For the sequence FLAAECPFL, the Kd in assay [7] (source organism: Itapua hantavirus) was 1.7 nM; in assay [8], no less than 20000 nM; in [9] (setting [28]), no less than 20000 nM; in [10] (setting [28]), no less than 20000 nM; in [11] (setting [28]), no less than 20000 nM; in assay [12] (setting [28]), no less than 20000 nM. Also, the Kd in assay [13] (setting [28]), in [14] (setting [28]) and in [15] (setting [28]) was no less than 20000 nM each time.

With FPQSNAPIQD, the values for the Kd in assay [16], in assay [17] (setting [29]) and in assay [18] were 1110 nM, no less than 69600 nM and 1940 nM, respectively.

As for FTQTAGPWHL, the Kd was no less than 23500 nM in assay [19] and no less than 36500 nM in assay [17] (source organism: Dengue virus 1 Brazil/97-11/1997).

Turning to GDEALRGFL, the Kd in assay [1] (setting [30]) was no less than 50900 nM; in [2] (setting [30]) it was 7010 nM; in assay [3] (setting [30]), 826 nM; in [4] (setting [30]), no less than 47000 nM; in assay [5] (setting [30]), no less than 36100 nM; in assay [6] (setting [30]), no less than 43700 nM.

With IDFYLCFLAF, the Kd amounted to 1560 nM in assay [1] (setting [25]); 839 nM in [2] (setting [25]); 16700 nM in [3] (setting [25]); 97 nM in assay [4] (setting [25]); 88.1 nM in assay [5] (setting [25]); 117 nM in assay [6] (setting [25]).

For the sequence KEEILGTVSW, the Kd was 468 nM in assay [1] (setting [25]); 19500 nM in [2] (setting [25]); 266 nM in [3] (setting [25]); 4.47 nM in assay [4] (setting [25]); 48.1 nM in assay [5] (setting [25]); 2810 nM in assay [6] (setting [25]).

Turning to LVAGGLLTV, the Kd in [20] (source organism: dengue virus type 2) was no less than 20000 nM; in [21], 3.95 nM.

The sequence LYNTAIVGL returned a Kd in assay [22] (source organism: Mycobacterium tuberculosis variant bovis) of 0.8 nM.

Turning to MEAQFLYLYA, the Kd stood at 351 nM in assay [1] (setting [25]); 1430 nM in [2] (setting [25]); 68.7 nM in [3] (setting [25]); 56.3 nM in assay [4] (setting [25]); 8.16 nM in assay [5] (setting [25]); 4.51 nM in assay [6] (setting [25]).

In the case of PECSDSPLVL, the Kd in assay [1] (setting [31]) is 17300 nM; in assay [2] (setting [31]) it was no less than 33000 nM; in assay [3] (setting [31]) it was 3150 nM; in [4] (setting [31]), no less than 70200 nM; in assay [5] (setting [31]), no less than 70100 nM; in assay [6] (setting [31]), no less than 70000 nM.

With QDPLLGTLS, the Kd in [1] (setting [30]) was no less than 77500 nM; in assay [2] (setting [30]), no less than 46400 nM; in assay [3] (setting [30]) it was 12600 nM; in assay [4] (setting [30]), no less than 77900 nM; in assay [5] (setting [30]) it was no less than 30400 nM; in assay [6] (setting [30]) it was no less than 74300 nM.

For REAPAHVST, the Kd in [1] (setting [25]) was determined as 5190 nM; in assay [2] (setting [25]), 46.8 nM; in assay [3] (setting [25]), 44.2 nM; in [4] (setting [25]) it was 4580 nM; in assay [5] (setting [25]), 8470 nM; in [6] (setting [25]), 108 nM.

Regarding REEAIRHVRA, the Kd is no less than 70500 nM in assay [1] (setting [25]); 689 nM in [2] (setting [25]); 3330 nM in assay [3] (setting [25]); 18800 nM in assay [4] (setting [25]); no less than 45900 nM in [5] (setting [25]); 57.6 nM in assay [6] (setting [25]).

Consider RELHLSWEV, for which the Kd in [1] (setting [25]) turned out to be 78.8 nM; in assay [2] (setting [25]), 3.07 nM; in assay [3] (setting [25]) it was 4.97 nM; in assay [4] (setting [25]), 87.7 nM; in assay [5] (setting [25]) it was 21.5 nM; in assay [6] (setting [25]), 17.7 nM.

RELHLSWEVG: the equilibrium dissociation constant (Kd) was determined as 1590 nM in assay [1] (setting [25]); 829 nM in assay [2] (setting [25]); 198 nM in assay [3] (setting [25]); 8.3 nM in assay [4] (setting [25]); 42.7 nM in assay [5] (setting [25]); 1280 nM in assay [6] (setting [25]).

As to SFMQEIPTF, in assay [22] (source organism: Mammarenavirus juninense), the dissociation constant (Kd) came out at 0.3 nM.

For the sequence TEAILQLGDL, the Kd in assay [1] (setting [32]) was determined as 10600 nM; in assay [2] (setting [32]) it was 2960 nM; in assay [3] (setting [32]), 936 nM; in assay [4] (setting [32]) it was 2480 nM; in assay [5] (setting [32]), 4300 nM; in [6] (setting [32]), 13300 nM.

Turning to TLKDGDFIL, the Kd in assay [7] (source organism: Homo sapiens) is no more than 1 nM; in assay [9] (source organism: Homo sapiens), no less than 20000 nM; in assay [20] (source organism: Homo sapiens) it was no less than 20000 nM; in assay [10] (source organism: Homo sapiens), no less than 20000 nM; in assay [11] (source organism: Homo sapiens), no less than 20000 nM; in [12] (source organism: Homo sapiens) it was no less than 20000 nM. The Kd in assay [23], in [13] (source organism: Homo sapiens), in assay [14] (source organism: Homo sapiens) and in assay [15] (source organism: Homo sapiens) was no less than 20000 nM in each case.

For TPTGTVMDI, the Kd in assay [17] (setting [29]) was 7240 nM; in assay [18], 114 nM.

VALLRTYCI: the Kd amounted to 35.5 nM in [24] and 392 nM in assay [17] (source organism: Dengue virus 4 Philippines/H241/1956).

With YSPALNKMF, in assay [10] (source organism: Homo sapiens), the Kd turned out to be 336 nM.
